In ChEMBL document CHEMBL1123197, “(beta-Chloro-alpha-aminoethyl)phosphonic acids as inhibitors of alanine racemase and D-alanine:D-alanine ligase” (J Med Chem, 1986) one finds Km data, which are given here for 1 protein.

As usually defined, the Km is the substrate concentration at which the rate is half of its maximum.

Substrate in data set [1]: NC(CCl)P(=O)(O)O
To be noted: Pseudomonas aeruginosa.

Substrate in data set [2]: C[C@H](N)C(=O)O
In words: Km value for Alanine racemase from Pseudomonas aeruginosa.

B1: Alanine racemase, biosynthetic (Escherichia coli K-12), P0A6B4 (protein)
chain: MQAATVVINRRALRHNLQRLRELAPASKMVAVVKANAYGHGLLETARTLPDADAFGVARLEEALRLRAGGITKPVLLLEGFFDARDLPTISAQHFHTAVHNEEQLAALEEASLDEPVTVWMKLDTGMHRLGVRPEQAEAFYHRLTQCKNVRQPVNIVSHFARADEPKCGATEKQLAIFNTFCEGKPGQRSIAASGGILLWPQSHFDWVRPGIILYGVSPLEDRSTGADFGCQPVMSLTSSLIAVREHKAGEPVGYGGTWVSERDTRLGVVAMGYGDGYPRAAPSGTPVLVNGREVPIVGRVAMDMICVDLGPQAQDKAGDPVILWGEGLPVERIAEMTKVSAYELITRLTSRVAMKYVD
B1: the Michaelis-Menten constant (Km) in data set [1] is 8 mM; in data set [2], 14.2 mM.
